Reference: patent CN114031685A (INST MILITARY MEDICINE ACADEMY MILITARY SCIENCES PLA, dated 2022)

How the values were obtained:
[1] = target: Beta株 S蛋白 (on pseudovirus / live virus) (SARS-CoV-2 Beta株 (B.1.351)); assay: cell-based or functional assay
[2] = target: Omicron株 S蛋白 (on pseudovirus) (SARS-CoV-2 Omicron株 (B.1.1.529)); assay: cell-based or functional assay
[3] = target: Delta株 S蛋白 (on pseudovirus / live virus) (SARS-CoV-2 Delta株 (B.1.617.2)); assay: cell-based or functional assay
[4] = target: Gamma株 S蛋白 (on pseudovirus) (SARS-CoV-2 Gamma株 (P.1)); assay: cell-based or functional assay
[5] = target: Alpha株 S蛋白 (on pseudovirus) (SARS-CoV-2 Alpha株 (B.1.1.7)); assay: cell-based or functional assay
[6] = target: SARS-CoV-2 WT S-ECD蛋白 (新冠野生株, Genbank NC_045512.2) (SARS-CoV-2, UniProt P0DTC2 14-1213)

B1: 抗SARS-CoV-2全人源单克隆抗体ZW2G10 (antibody, V domains shown)
VH: EVQLVESGGGLVQPGRSLRLSCAASGFTFDDYAMHWVRQAPGKGLEWVSGITWNSGTIGYADSVKGRFIISRDNAKNSLHLQMNSLRVEDTALYYCAKDNSDYSGYYWELENYGMDVWGQGTTVTVSS
VL: QSVLTQPPSVSGAPGQRVTISCTGSSSNIGAGYDVHWYQQLPGTAPKLLIYDNNNRPSGVPDRFSGSKSGTSASLAITGLQAEDEADYYCQSFDSSLSGVVFGGGTRLTVLR
notes: also called 单抗ZW2G10
假病毒中和 EC50 [1]: 0.0184 µg/mL
真病毒中和 EC50 (Vero E6) [1]: 1.42 µg/mL
假病毒中和 EC50 [2]: 0.0193 µg/mL
假病毒中和 EC50 [3]: 0.0362 µg/mL
真病毒中和 EC50 (Vero E6) [3]: 0.71 µg/mL
假病毒中和 EC50 [4]: 0.0156 µg/mL
假病毒中和 EC50 [5]: 0.0141 µg/mL
Kd [6]: 0.243 nM
